B1: Ferredoxin--NADP reductase, chloroplastic (Spinacia oleracea (Spinach)), P00455 (parent)
chain: MTTAVTAAVSFPSTKTTSLSARSSSVISPDKISYKKVPLYYRNVSATGKMGPIRAQIASDVEAPPPAPAKVEKHSKKMEEGITVNKFKPKTPYVGRCLLNTKITGDDAPGETWHMVFSHEGEIPYREGQSVGVIPDGEDKNGKPHKLRLYSIASSALGDFGDAKSVSLCVKRLIYTNDAGETIKGVCSNFLCDLKPGAEVKLTGPVGKEMLMPKDPNATIIMLGTGTGIAPFRSFLWKMFFEKHDDYKFNGLAWLFLGVPTSSSLLYKEEFEKMKEKAPDNFRLDFAVSREQTNEKGEKMYIQTRMAQYAVELWEMLKKDNTYFYMCGLKGMEKGIDDIMVSLAAAEGIDWIEYKRQLKKAEQWNVEVY

Variants of: B1
Conditions: with fer1_spiol PETF

Variant	effect of a mutation on the interaction
MTTAVTAAVSFPSTKTTSLSARSSSVISPDKISYKKVPLYYRNVSATGKMGPIRAQIASDVEAPPPAPAKVEKHSKKMEEGITVNKFQPKTPYVGRCLLNTKITGDDAPGETWHMVFSHEGEIPYREGQSVGVIPDGEDKNGKPHKLRLYSIASSALGDFGDAKSVSLCVKRLIYTNDAGETIKGVCSNFLCDLKPGAEVKLTGPVGKEMLMPKDPNATIIMLGTGTGIAPFRSFLWKMFFEKHDDYKFNGLAWLFLGVPTSSSLLYKEEFEKMKEKAPDNFRLDFAVSREQTNEKGEKMYIQTRMAQYAVELWEMLKKDNTYFYMCGLKGMEKGIDDIMVSLAAAEGIDWIEYKRQLKKAEQWNVEVY [K88Q]	decreasing interaction
